Measured values taken from patent publication CN113150127A.

Biological target: HBV表面抗原蛋白 (HBsAg) (Hepatitis B virus)
Assay: SPR (Biacore 3000), antibody captured through AHC on a CM5 chip, HBsAg as analyte from 40 nM to 0 nM in 2-fold dilutions

B1: 抗HBsAg单克隆抗体5G7-2 (antibody, V domains shown)
VH: EVQLQQSGPELVKPGASVKIYCKASGYTFTNARSTWVKQSHGKSLEWIGWINFKINNDGSATPFKGKATLTVDKSSSTAYMELRSLTSEDSAVYYCSRAGRFKLMDWGQGTLVTVSA
VL: DIVMTQSPASLAMSLGKRATISCGGCARTPLLWICNGKWYQQKPGQPPKLLIYLASNKFGGVPARFSGSGSGADFTLTIDPVEGDDVALYYCQQDWNTIYTFGGGTKMEIK
- Kd: 6.12 nM
